{
  "source": "patent US20160185875A1",
  "about": "(DCB USA, published 2016)",
  "binders": {"B1": {"name": "MMP2-treated IgG1 hinge/MMP2/panitumumab (antibody, V domains shown, not shown: small tags and cut ends)", "VH": "QVQLVQSGAEVKKPGASVKVSCKASGYTFTSYWMHWVRQAPGQGLEWMGNIYPGSGGTNYAEKFKNRVTMTRDTSISTAYMELSRLRSDDTAVYYCARSGGPYFFDYWGQGTLVTVSS", "VL": "DIVMTQSPLSLPVTPGEPASISCRSSQNIVHNNGITYLEWYLQKPGQSPQLLIYKVSDRFSGVPDRFSGSGSGTDFTLKISRVEAEDVGVYYCFQGSHIPPTFGQGTKVEIKR", "notes": "m14 around 2 hours after MMP2 treatment"}},
  "molecular_target": "T1, EGFR on EGFR-positive SW480 cells (human, UniProt P00533 25-1210)",
  "T1 construct": "whole, on cells; also called epidermal growth factor receptor",
  "assay": "cell-based ELISA on EGFR-positive SW480 cells, around 2 hours after MMP2 treatment",
  "protocol": "Briefly, EGFR-positive SW480 cells or HER2-positive SKBr3 cells were seed on a 96-well plate by 10⁵ cells/well using 200 μl of growth medium (DMEM+10% CCS+1% P/S), and incubated at 37° C. overnight.",
  "data": [
    {"binder": "B1", "values": [
      {"measurement": "antigen binding capability (% of parent antibody)", "result": "~90", "unit": "%"}
    ]}
  ]
}
